From US11230591 come the findings set out here.

For one assay, the target named is CMV virions. Nature of the assay: virion ELISA. Background: ELISA stands for enzyme-linked immunosorbent assay.
Assay [1] concerns the target pentameric gH complex on infectious CMV (neutralization assays) (human cytomegalovirus). The assay is described as follows: cell-based or functional assay.
For assay [2], the target named is recombinant pentameric gH complex (Towne strain) (human cytomegalovirus, Towne strain) (UniProt P17176). The assay is described as follows: BLI competition on His-pentamer; competitor (antibody 2): 3-7.
The target is the same in assay [3]. The assay is described as follows: BLI competition on His-pentamer; competitor (antibody 2): 1-32.
The target is the same in assay [4]. Nature of the assay: BLI competition on His-pentamer; competitor (antibody 2): 1-85.
For assay [5] the target is unchanged. The assay is described as follows: BLI competition on His-pentamer; competitor (antibody 2): 2-18.
For assay [6] the target is unchanged. The assay is described as follows: BLI competition on His-pentamer; competitor (antibody 2): 2-25.
Assay [7] has the same target. Nature of the assay: BLI competition on His-pentamer; competitor (antibody 2): 3-15.
Assay [8] has the same target. The assay is described as follows: BLI competition on His-pentamer; competitor (antibody 2): 3-16.
Assay [9] shares this target. Nature of the assay: BLI competition on His-pentamer; competitor (antibody 2): 57.4.
For assay [10] the target is unchanged. Nature of the assay: BLI competition on His-pentamer; competitor (antibody 2): 70.7.
The target is the same in assay [11]. Nature of the assay: BLI competition on His-pentamer; competitor (antibody 2): 1-103.
Assay [12] shares this target. Nature of the assay: BLI competition on His-pentamer; competitor (antibody 2): 1-150.
Assay [13] has the same target. Nature of the assay: BLI competition on His-pentamer; competitor (antibody 2): 124.4.
Assay [14] shares this target. The assay is described as follows: BLI competition on His-pentamer; competitor (antibody 2): 270.7.
The target is the same in assay [15]. The assay is described as follows: BLI competition on His-pentamer; competitor (antibody 2): 276.1.
Assay [16] has the same target. The assay is described as follows: BLI competition on His-pentamer; competitor (antibody 2): 316.2.
For assay [17] the target is unchanged. The assay is described as follows: BLI competition on His-pentamer; competitor (antibody 2): 324.4.

recombinant pentameric gH complex (Towne strain) (human cytomegalovirus, Towne strain), sequence (P17176 30-715, one chain of several): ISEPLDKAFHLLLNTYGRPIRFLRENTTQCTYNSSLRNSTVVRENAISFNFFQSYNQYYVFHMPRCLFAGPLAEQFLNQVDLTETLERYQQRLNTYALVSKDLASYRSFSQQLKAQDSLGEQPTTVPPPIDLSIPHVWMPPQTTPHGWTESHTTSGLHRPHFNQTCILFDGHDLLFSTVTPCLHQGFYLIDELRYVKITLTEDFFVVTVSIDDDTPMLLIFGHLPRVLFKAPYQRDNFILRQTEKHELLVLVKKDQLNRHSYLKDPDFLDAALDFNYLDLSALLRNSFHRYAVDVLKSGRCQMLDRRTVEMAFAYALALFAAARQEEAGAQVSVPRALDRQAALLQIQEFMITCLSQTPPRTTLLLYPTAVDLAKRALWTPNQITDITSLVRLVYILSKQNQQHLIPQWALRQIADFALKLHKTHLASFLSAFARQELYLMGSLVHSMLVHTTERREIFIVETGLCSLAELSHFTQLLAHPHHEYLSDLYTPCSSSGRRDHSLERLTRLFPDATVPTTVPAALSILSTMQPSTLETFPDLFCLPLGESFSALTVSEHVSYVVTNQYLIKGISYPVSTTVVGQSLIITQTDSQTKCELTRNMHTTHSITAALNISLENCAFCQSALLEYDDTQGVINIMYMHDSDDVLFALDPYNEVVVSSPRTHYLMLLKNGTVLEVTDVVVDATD

B1: 1-103 (antibody, V domains shown)
VH: QLQLQESGPGLVKPSETLSLTCSVSGDAISGSNYYWGWIRQPPGKGLQWIGSIYHTGSTFYNPSFSSRVTLSVDTSKNQFSLKLISVNAADTAVYYCARRIRGYSGTYDWGQGTLVTVSS
VL: DIQLTQSPSFLSASVGDRVTITCRASQDISSYVAWYQQKPGNAPKLLISSASTLPSGVPSRFSGSRSGTDFTLTISSLQPEDFATYYCQQLNNFGPGTTVDIK
For orientation: EC50 means the concentration giving half of the maximal effect. Take B1: the 50% effective concentration (EC50) with CMV virions turned out to be 0.2 µg/mL. This molecule yielded an EC50 Neutralizing in [1] of 0.004 µg/mL. For the same molecule, the IC50 in ARPE-19 in assay [1] stood at 0.00088 µg/mL. The Pair-wise inhibition (%) in [2] was -12%; in assay [3], -12%; in assay [4], 6%; in assay [5] it was -10%; in [6], -20%; in assay [7] it was -7%. For the same molecule, the Pair-wise inhibition (%) in assay [8] was -38%; in [9] it was -4%; in assay [10], -31%; in [11], 89%; in assay [12], -49%; in assay [13] it was -22%. The Pair-wise inhibition (%) was -35% in assay [14], -2% in assay [15], -28% in assay [16] and -19% in assay [17].

B2: 3-16 (antibody, V domains shown)
VH: QVQVVQSGAEVKKPGASVMVSCKTSGYRFTIYSIAWMRQAPGQGLEWMGSINTYNGNTKYAEKFQGRVTMSRDTSTSTAYMEVRSLGSADTAMYYCARDAENWGFFDDWGQGTLVTVSS
VL: EIVLTQSPGTVSLSPGERVTLSCRASQSVGRHLAWYQQKPGQPPRLLIYGASTRATGVPDRFSGSGSETEFTLAISSLQSEDFALYYCQQYNTWPYTFGQGTKLEIK
In the assay with CMV virions, B2 gave a concentration for a half-maximal effect (EC50) of 0.1 µg/mL. In addition, the EC50 Neutralizing in assay [1] was determined as 0.09 µg/mL. The molecule further displayed an IC50 in ARPE-19 in assay [1] of 0.017 µg/mL. Also, the IC50 in MRC-5 in [1] was determined as 0.037 µg/mL. The Pair-wise inhibition (%) in assay [2] was 79%; in assay [3] it was -5%; in assay [4], 16%; in assay [5] it was -17%; in assay [6], -21%; in assay [7] it was 95%. In addition, the Pair-wise inhibition (%) was 88% in assay [8]; 11% in assay [9]; 2% in assay [10]; 6% in assay [11]; -22% in assay [12]; -1% in assay [13]. For the same molecule, the Pair-wise inhibition (%) was -1% in assay [14], 18% in [15], -7% in assay [16] and -5% in assay [17].

B3: 2-18 (antibody, V domains shown)
VH: EVQLVQSGGGLVQPGGSLRVSCAASGFSFSDHDMDWVRQAPGKGFEWVGRSRNKDYSSTTEYAASVRGRFTISRHTSEDLLYLELNTVKTEDTAVYFCARGPHHSDRSGYYGGTFDIWGQGTMVTVSS
VL: DIQMTQSPSSVSASVGDRVIITCRASQGISSWLAWYQQKPGRAPRLLIYDASTLESGVPSRFSGRGSGTEFTLTINSLQPEDFATYYCQQGNMFPLTFGGGTKVEIK
In the assay with CMV virions, B3 yielded an EC50 of 0.09 µg/mL. The EC50 Neutralizing in assay [1] came out at 0.0009 µg/mL. Further, the IC50 in ARPE-19 in assay [1] came to 0.00018 µg/mL. For the same molecule, the Pair-wise inhibition (%) in assay [2] was 16%; in assay [3] it was -1%; in assay [4], 10%; in assay [5], 97%; in assay [6], 117%; in assay [7] it was 15%. The Pair-wise inhibition (%) is 17% in assay [8]; 8% in assay [9]; 6% in assay [10]; 8% in assay [11]; 12% in assay [12]; -11% in assay [13]. Besides, the Pair-wise inhibition (%) in [14] was -6%; in assay [15], -31%; in [16], 3%; in assay [17], -1%.

B4: 3-7 (antibody, V domains shown)
VH: QVQLVQSGAEVKKPGASVKVSCKTSGYTFNTYAISWVRQAPGQGLEWVGWINTYSGSTKYAQKVQGRVTMTTDTSTSTAYMELRGLRSDDTAVYYCARDGYNWGFLDFWGQGSLVTVSS
VL: DIQMTQSPSSLSASVGDRVTITCRASQGISNYLAWYQQKPGKLPKLLIYAASTLQSGVPSRFSGSGSGTDFTLTISSLQPEDVASYYCQKYNSAPLTFGPGTKVDIK
With B4, in the assay with CMV virions, the concentration for a half-maximal effect (EC50) stood at 0.07 µg/mL. In assay [1], this molecule had an EC50 Neutralizing of 0.08 µg/mL. The same molecule returned an IC50 in ARPE-19 in [1] of 0.0095 µg/mL. Besides, the IC50 in MRC-5 in [1] came out at 0.019 µg/mL. The Pair-wise inhibition (%) in assay [2] amounted to 91%; in [3] it was 10%; in assay [4], 35%; in [5], 51%; in assay [6], 44%; in assay [7] it was 102%. Besides, the Pair-wise inhibition (%) is 97% in [8]; 20% in assay [9]; 38% in [10]; 27% in [11]; -6% in assay [12]; 35% in assay [13]. Besides, the Pair-wise inhibition (%) in assay [14] amounted to 16%; in [15] it was 12%; in [16] it was 21%; in [17], 14%.
